# IntAct's records for PubMed 20407420
# B1: Two-component response regulator-like APRR1 (Arabidopsis thaliana (Mouse-ear cress)), Q9LKL2 (parent)
# chain: MDLNGECKGGDGFIDRSRVRILLCDNDSTSLGEVFTLLSECSYQVTAVKSARQVIDALNAEGPDIDIILAEIDLPMAKGMKMLRYITRDKDLRRIPVIMMSRQDEVPVVVKCLKLGAADYLVKPLRTNELLNLWTHMWRRRRMLGLAEKNMLSYDFDLVGSDQSDPNTNSTNLFSDDTDDRSLRSTNPQRGNLSHQENEWSVATAPVHARDGGLGADGTATSSLAVTAIEPPLDHLAGSHHEPMKRNSNPAQFSSAPKKSRLKIGESSAFFTYVKSTVLRTNGQDPPLVDGNGSLHLHRGLAEKFQVVASEGINNTKQARRATPKSTVLRTNGQDPPLVNGNGSHHLHRGAAEKFQVVASEGINNTKQAHRSRGTEQYHSQGETLQNGASYPHSLERSRTLPTSMESHGRNYQEGNMNIPQVAMNRSKDSSQVDGSGFSAPNAYPYYMHGVMNQVMMQSAAMMPQYGHQIPHCQPNHPNGMTGYPYYHHPMNTSLQHSQMSLQNGQMSMVHHSWSPAGNPPSNEVRVNKLDRREEALLKFRRKRNQRCFDKKIRYVNRKRLAERRPRVKGQFVRKMNGVNVDLNGQPDSADYDDEEEEEEEEEEENRDSSPQDDALGT
# B2: Two-component response regulator-like APRR1 (Arabidopsis thaliana (Mouse-ear cress)), Q9LKL2 (parent)
# chain: B1 chain
# partner: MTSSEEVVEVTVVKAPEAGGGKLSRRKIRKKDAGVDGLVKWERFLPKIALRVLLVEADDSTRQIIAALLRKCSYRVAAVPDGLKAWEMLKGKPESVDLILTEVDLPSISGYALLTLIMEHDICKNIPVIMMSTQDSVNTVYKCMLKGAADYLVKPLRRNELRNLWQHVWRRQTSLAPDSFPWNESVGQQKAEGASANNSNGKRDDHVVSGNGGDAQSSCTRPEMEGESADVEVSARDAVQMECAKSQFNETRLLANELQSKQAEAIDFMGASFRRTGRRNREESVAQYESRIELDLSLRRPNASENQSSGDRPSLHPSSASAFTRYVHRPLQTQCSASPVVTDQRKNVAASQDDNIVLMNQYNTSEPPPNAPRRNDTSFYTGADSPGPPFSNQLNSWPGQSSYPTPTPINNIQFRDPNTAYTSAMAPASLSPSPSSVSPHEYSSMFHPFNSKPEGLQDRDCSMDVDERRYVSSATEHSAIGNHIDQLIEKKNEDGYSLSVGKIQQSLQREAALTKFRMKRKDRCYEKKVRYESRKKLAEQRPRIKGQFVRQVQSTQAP
# Variants of: B1
# Details: with ado1_arath ADO1, Q94BT6
# Chain of ado1_arath ADO1, Q94BT6 (Q94BT6 whole entry): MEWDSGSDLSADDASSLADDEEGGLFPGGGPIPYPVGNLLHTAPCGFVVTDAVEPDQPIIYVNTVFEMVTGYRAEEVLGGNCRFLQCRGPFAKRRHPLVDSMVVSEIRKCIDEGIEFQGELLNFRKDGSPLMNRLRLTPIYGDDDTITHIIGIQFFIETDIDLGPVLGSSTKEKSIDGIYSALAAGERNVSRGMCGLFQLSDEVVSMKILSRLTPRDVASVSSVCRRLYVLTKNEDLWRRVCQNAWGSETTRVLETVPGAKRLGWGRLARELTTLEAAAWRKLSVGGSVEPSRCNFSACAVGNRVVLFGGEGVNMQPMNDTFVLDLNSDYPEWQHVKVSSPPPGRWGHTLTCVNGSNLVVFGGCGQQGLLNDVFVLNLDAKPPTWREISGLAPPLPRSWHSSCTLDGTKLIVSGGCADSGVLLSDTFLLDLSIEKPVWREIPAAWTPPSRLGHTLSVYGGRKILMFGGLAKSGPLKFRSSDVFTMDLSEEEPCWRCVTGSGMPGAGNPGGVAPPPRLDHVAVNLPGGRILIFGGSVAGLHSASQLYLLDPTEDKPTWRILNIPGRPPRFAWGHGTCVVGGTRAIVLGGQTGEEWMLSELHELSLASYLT
row,Variant,effect of a mutation on the interaction
1,P96L,decreasing interaction

# Variants of: B2
# Details: with aprr5_arath APRR5, Q6LA42
row,Variant,effect of a mutation on the interaction
1,P124S,decreasing interaction

# Variants of: B2
# Details: with aprr5_arath APRR5, Q6LA42
# Remark: another data set of the same source
row,Variant,effect of a mutation on the interaction
1,P96L,disrupting interaction
